Like-named read-outs stand apart in the source and are kept apart here.
T1: CHO expressed human interferon gamma (hIFNγ) (human, UniProt P01579 24-161, glycosylated (highly glycosylated form purified))
T1 chain: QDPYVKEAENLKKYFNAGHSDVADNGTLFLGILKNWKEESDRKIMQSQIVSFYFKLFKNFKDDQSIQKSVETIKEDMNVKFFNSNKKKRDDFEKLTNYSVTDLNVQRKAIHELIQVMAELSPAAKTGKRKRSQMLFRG


Tests used:
[1] = target: T1, CHO expressed human interferon gamma …; assay: BIAcore
[2] = target: T1, CHO expressed human interferon gamma …; assay: BIAcore

Binder	Kd [1]	Kd [2]
GP-A IgG (antibody, V domains shown) VH: QVQLVETGGGVVQPGRSLRLSCAASGFTFSSYAMHWVRQAPGKGLEWVAVISYDGSNKYYADSVKGRFTISRDNSKNTLYLQMNSLRAEDTAVYYCASDLVLTMTSRRAAFDIWGQGTMVTVSS VL: SYELTQPPSVSVSPGQTARITCSGDVLARKYARWFQQKPGQAPVLVIYKDRERPSGIPERFSGSTSGTTVTLTISGAQVEDEADYYCYSAADNRGVFGGGTKLTVLR	8 nM	8 nM
Fab phage clone "GP-A" (Fab, V domains shown) VH: QVQLVETGGGVVQPGRSLRLSCAASGFTFSSYAMHWVRQAPGKGLEWVAVISYDGSNKYYADSVKGRFTISRDNSKNTLYLQMNSLRAEDTAVYYCASDLVLTMTSRRAAFDIWGQGTMVTVSS VL: SYELTQPPSVSVSPGQTARITCSGDVLARKYARWFQQKPGQAPVLVIYKDRERPSGIPERFSGSTSGTTVTLTISGAQVEDEADYYCYSAADNRGVFGGGTKLTVLR	–	150 nM
BS-A Fab (soluble, purified) (Fab, V domains shown) VH: QVQLQQWGAGLLKPSETLSLTCAVYGGSFSGYYWSWIRQPPGKGLEWIGEINHSGSTNYNPSLKSRVTISVDTSKNQFSLKLSSVTAADTAVYYCARGRARNWRSRFDYWGQGTLVTVSS VL: NFMLTQPHSVSESPGKTVTISCTGSSGSIASHYVQWYQQRPGSAPTNVIYEDKERPSGVPDRFSGSIDSSTNSASLTISGLKTEDEADYYCQSYDSSNQWVFGGGTKLTVLG	–	84.3 nM
BS-A IgG (antibody, V domains shown) VH: QVQLQQWGAGLLKPSETLSLTCAVYGGSFSGYYWSWIRQPPGKGLEWIGEINHSGSTNYNPSLKSRVTISVDTSKNQFSLKLSSVTAADTAVYYCARGRARNWRSRFDYWGQGTLVTVSS VL: NFMLTQPHSVSESPGKTVTISCTGSSGSIASHYVQWYQQRPGSAPTNVIYEDKERPSGVPDRFSGSIDSSTNSASLTISGLKTEDEADYYCQSYDSSNQWVFGGGTKLTVLG	6 nM	6 nM
Fab phage clone "IFN-A" (Fab, V domains shown) VH: EVQLQQWGAGLLKPSETLSLTCAVYGGSFSGYYWSWIRQPPGKGLEWIGEINHSGSTNYNPSLKSRVTISVDTSKNQFSLKLSSVTAADTAVYYCARGWPTYVWGSYRPKGYFDYWGQGTLVTVSS VL: EIVLTQSPLSLPVTPGEPASISCRSSQSLLHTNEYNYLDWYLQKPGQSPQLLIYLGSNRAPGVPDRFSGSGSGTDFTLRISRVEADDVGVYYCMQALQTPRTFGQGTKLEIKR	–	420 nM
IFN-A IgG (antibody, V domains shown) VH: EVQLQQWGAGLLKPSETLSLTCAVYGGSFSGYYWSWIRQPPGKGLEWIGEINHSGSTNYNPSLKSRVTISVDTSKNQFSLKLSSVTAADTAVYYCARGWPTYVWGSYRPKGYFDYWGQGTLVTVSS VL: EIVLTQSPLSLPVTPGEPASISCRSSQSLLHTNEYNYLDWYLQKPGQSPQLLIYLGSNRAPGVPDRFSGSGSGTDFTLRISRVEADDVGVYYCMQALQTPRTFGQGTKLEIKR	18 nM	18 nM
BS-B Fab (soluble, purified) (Fab, V domains shown) VH: not shown VL: NFMLTQPHSVSESPGKTVTISCTRSSGSIASYYVQWYQQRPGSSPTTVIYEDDQRPSGVPDRFSGSIDSASNSASLTISGLQTEDEADYYCQSYDRNSLVFGGGTKLTVLG	–	83.5 nM
BS-B IgG (antibody, V domains shown) VH: not shown VL: NFMLTQPHSVSESPGKTVTISCTRSSGSIASYYVQWYQQRPGSSPTTVIYEDDQRPSGVPDRFSGSIDSASNSASLTISGLQTEDEADYYCQSYDRNSLVFGGGTKLTVLG	0.5 nM	0.5 nM
57E IgG (antibody, V domains shown) VH: QVQLQESGPGLVKPSETLSLTCAVSGGSISSGGYSWSWIRQPPGKGLEWIGYIYHSGSTYYNPSLKSRVTISVDRSKNQFSLKLSSVTAADTAVYYCARGDWGYFDYWGQGTLVTVSS VL: NFMLTQPHSVSESPGKTVTISCTGSSGSIANNYVHWYQQRPGSAPTTVIFEDDQRPSGVPDRFSGSVDSSSNSASLSISGLKTEDEADYYCQSYDNSNSFVVFGGGTKLTVLG	200 nM	–

— patent US20030099647A1 (published 2003)
